In patent US20090118194A1, “Measurement of melanocortin peptides and uses thereof” (Auckland UniServices Limited, priority 2002, published 2009):
Entries after “also recorded” stand apart in the source; their conditions may differ.

B1: agouti protein: recombinant mouse agouti protein, antagonist of melanocortin peptides coupling MC1-R, MC2-R, and MC4-R (protein, UniProt Q03288 23-131, looked up)
Agouti-signaling protein: HLALEETLGDDRSLRSNSSMNSLDFSSVSIVALNKKSKKISRKEAEKRKRSSKKKASMKKVARPPPPSPCVATRDSCKPPAPACCDPCASCQCRFFGSACTCRVLNPNC

Test system: primary rat osteoblasts
Experiment: Primary rat osteoblast proliferation assay ([3H]thymidine incorporation, cell number)
Type: cell-based
Text: Primary rat osteoblasts were isolated from 20 day fetal rat calvariae. (The use of animals for these studies was approved by the Auckland Animal Ethics Committee.) Calvariae were excised and the frontal and parietal bones, free of suture and periosteal tissue, were collected and sequentially digested using collagenase as previously described (Cornish J, Callon K E, Lin C Q X, Xiao C L, Mulvey T B, Cooper G J S, Reid I R Trifluoroacetate, a contaminant in puritied proteins, inhibits proliferation of osteoblasts and chondrocytes. Amer J Physiol Endocrinol Metab 277: E779-E783, 1999). Primary rat osteoblasts were grown in DMEM supplemented with 10% FCS, 50 U/ml penicillin and 50 μg/ml streptomycin. After 48 hour, the medium was changed to MEM. Confluence was reached within 5-6 days, at which time the cells were subcultured into 10 cm culture plates for RNA preparation or 24 well plates for proliferation assays.
Primary rat osteoblasts were subcultured into 24 well plates at a density of 5×10^4 cells/ml/well in MEM, 5% FCS for 24 hours. Cells were growth arrested in MEM, 0.1% bovine serum albumin (BSA) for 24 hour and then fresh media and experimental compounds were added for a further 24 hours. Cells were pulsed with [^3H]thymidine (0.5 μCi/well) 2 hours before the end of the experimental incubation. The experiment was terminated and both cell numbers and thymidine incorporation were assessed. Cell numbers were analysed by detaching cells from the wells by exposure to trypsin/EDTA (0.05%/0.53 mM) for approximately 5 minutes at 37° C. Counting was performed in a hemocytometer chamber. Results are expressed per well. [^3H]Thymidine incorporation was analysed by washing the cells in MEM followed by the addition of 10% trichloroacetic acid. The precipitate was washed twice with ethnol:ether (3:1) and the wells desiccated at room temperature. The residue was dissolved in 2M KOH at 55° C. for 30 minutes, neutralized with 1M HCl, and an aliquot counted for radioactivity. Results are expressed as dpm per well. Each experiment was performed at least three times using experimental groups consisting of at least six wells.
Data are presented as mean±SEM. The significance of differences between groups was determined using Student's t tests for unpaired data and a 5% significance level. The comparisons to be made in each experiment were specified a priori, so no adjustment for multiple comparisons was necessary. Where several experiments have been shown in one figure, the data are expressed as the ratio of results in treatment groups to those in the control group and the ‘P’ values shown were calculated using the data from the individual experiments, before the data were pooled.

| Molecule | antagonism of α-MSH stimulated [3H] thymidine uptake (10^−7 M against α-MSH 10^−8 M and 10^−7 M, growth arrested primary rat osteoblasts) | thymidine incorporation or cell numbers (proliferation) (growth arrested primary rat osteoblasts, 10^−7 M, alone) | antagonism of α-MSH stimulated osteoblast proliferation (agouti protein 10^−9 M-10^−7 M, primary rat osteoblasts) | thymidine incorporation (growth arrested primary rat osteoblasts, 10^−9-10^−7 M, alone) | additivity with α-MSH stimulated thymidine incorporation (primary rat osteoblasts) |
| --- | --- | --- | --- | --- | --- |
| ACTH1-24: melanocortin peptide purchased from Bachem California (SYSMEHFRWGKPVGKKRRPVKVYP; Corticotropin; UniProt P01189 138-161, looked up, fragment) | inhibited two doses of α-MSH (10^−8 M and 10^−7 M) from stimulating [^3H] thymidine uptake; also recorded: antagonise α-MSH stimulated stimulation of thymidine incorporation | did not stimulate thymidine incorporation or cells numbers; also recorded: no significant effect on osteoblast proliferation |  |  |  |
| B1 |  |  | did not antagonise α-MSH stimulated osteoblast proliferation | significantly stimulated thymidine incorporation | not additive |
